The text below walks through data of the RNAGym collection of RNA variant scans (doi:10.1093/nar/gkz1192).

Sequences and labels used below:
B1: CPEB3 Ribozyme (parent)
chain: UAACAGGGGGCCACAGCAGAAGCGUUCACGUCGCAGCCCCUGUCAGAUUCUGGUGAAUCUGCGAAUUCUGCUGUAUAUCUC

The data set covers variants of B1. Nature of the data set: self-cleavage, relative activity (ratio to wild type); higher = more cleavage; in vitro, sequencing. In a few lines: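 Relative activity was defined as the cleaved/total read fraction for a variant divided by the same fraction for the unmutated ribozyme. CPEB3 self-cleaving ribozyme libraries were made by rounds of error-prone PCR, barcoded, and transcribed in vitro with T7 RNA polymerase for 5 hours at 37°C, and cleavage ran through transcription plus a 15 min DNase I step before EDTA. Illumina sequencing of template-switched reverse transcripts gave the reads, and DNA sequencing mapped the barcodes. Averages come from three batches, using variants with at least 5 reads.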
With A15C G63A, the self-cleavage stood at 0.99.
The value for A15G C79U was 1.04; that for A15G C79G was 1.26; that for A15G C79A was 1.19.
For C14U U26A the value was 0.93.
C14U U26C: the self-cleavage is 0.66.
A15C G73A: the self-cleavage is 1.26.
Turning to A15C U48C, the self-cleavage was 0.47.
Consider A15C U69C, for which the self-cleavage turned out to be 0.26.
The value for A15C A57G was 0.43; that for A15C A57U was 0.54.
As for A15C U25A, the self-cleavage stood at 0.23.
For A15C U25C the value was 0.23.
As to A15G U41G, the self-cleavage is 0.38.
On to A15G U41A, for which the self-cleavage amounted to 0.23.
Turning to A15G U41C, the self-cleavage worked out at 0.74.
A15U A45U: the self-cleavage is 0.33.
The value for A15U A45C was 0.18.
The value for A15U A45G was 0.49.
On to A15C U54C, for which the self-cleavage was determined as 0.98.
Consider A15C C37U, for which the self-cleavage amounted to 0.58.
For A15C C29U the value was 0.22; for A15C U41G, 0.15; for A15C U41A, 0.22.
With A15C U41C, the self-cleavage is 1.13.
Take A15G A56C: the self-cleavage was found to be 0.35.
Regarding A15G A56G, the self-cleavage was 0.62.
As to A15G A56U, the self-cleavage worked out at 0.39.
For C14U G33A the value was 0.21.
The value for A15C U76A was 1.19; that for A15U C40G was 0.18; that for A15U C40A was 0.31.
The value for A15U C40U was 0.55.
Turning to A15G G55U, the self-cleavage is 0.65.
Take A15G G55A: the self-cleavage was 0.66.
With A15U A75U, the self-cleavage came to 0.87.
Take A15U A75G: the self-cleavage stood at 0.67.
The value for A15C U80A was 1.22; that for A15G C27U was 0.27; that for A15G C27A was 0.21.
A15G G52A: the self-cleavage came to 0.99.
The value for A15G G52C was 0.88.
With A15C G24A, the self-cleavage was found to be 0.18.
For A15G C34G the value was 0.29; for A15G C34A, 0.2; for A15G C34U, 0.25.
For A15U C17U, the self-cleavage is 0.21.
The value for A15U C17A was 0.6.
A15U C17G: the self-cleavage came out at 0.36.
The value for A15G G33C was 0.29; that for A15G G33U was 0.12.
Regarding A15G G33A, the self-cleavage was 0.24.
With C14U U67C, the self-cleavage stood at 0.23.
Regarding C14U U67A, the self-cleavage came to 0.42.
For A15G G30U the value was 0.42; for A15G G30A, 0.33; for A15G G30C, 0.27.
The value for A15G C50A was 0.4.
For A15G C50U the value was 0.33; for A15G C50G, 0.57.
Consider A15G G63A, for which the self-cleavage was found to be 0.79.
On to A15G G63C, for which the self-cleavage was determined as 0.86.
For C14U U60G the value was 0.41; for C14U U60A, 0.53.
For A15U C32A the value was 0.24.
As to A15U C32U, the self-cleavage came out at 0.4.
Take A15U C32G: the self-cleavage stood at 0.06.
A15U C37U: the self-cleavage turned out to be 0.29.
For A15U A47C the value was 0.29.
On to A15U A47U, for which the self-cleavage is 0.34.
For A15U A47G the value was 0.51; for A15C C40U, 0.72; for C14U U69C, 0.57.
As for A15C U66C, the self-cleavage was 0.29.
For the variant A15C U66G, the self-cleavage came to 0.45.
Take A15U A35U: the self-cleavage is 0.51.
The value for A15U A35G was 1.24.
For A15G C38U the value was 0.81; for A15G C38A, 0.42.
For the variant A15G G36A, the self-cleavage is 0.34.
For A15G G36U the value was 0.3; for C14U U31A, 0.74.
The value for A15G A21G was 0.49.
Turning to A15G A21C, the self-cleavage came to 0.35.
The value for A15G A21U was 0.33; that for C14U U58C was 0.77.
For A15C U58C the value was 0.21.
Take A15C U58A: the self-cleavage was found to be 0.41.
For A15C U58G the value was 0.29; for A15G G16A, 0.33; for A15G G16U, 0.25.
The value for A15C A65G was 0.46; that for A15C A65U was 0.17; that for A15G C44U was 0.32.
For A15G C44A the value was 0.28; for A15U A28C, 0.33.
As to A15U A28U, the self-cleavage was found to be 0.38.
For A15U A28G the value was 0.22; for A15G U54G, 0.96.
For A15G U54C the value was 0.87; for A15G U54A, 0.95; for A15G A77U, 0.97.
For A15G A77C the value was 1.1; for A15G A77G, 1.15; for A15G C62A, 0.17.
Consider A15G C62U, for which the self-cleavage was found to be 0.26.
For A15U C23A the value was 0.18; for A15U C23U, 0.23.
For A15C A28U the value was 0.8.
On to A15C A21G, for which the self-cleavage was 0.49.
Take A15C A21C: the self-cleavage was 0.26.
For A15C A21U the value was 0.34; for A15G U31A, 0.63; for A15G U31C, 0.36.
For C14U U25C the value was 0.28; for C14U U25A, 0.44.
Regarding C14U U48C, the self-cleavage came to 0.97.
As for C14U U48A, the self-cleavage came out at 0.71.
With A15C U51C, the self-cleavage was 0.68.
Regarding A15C U51A, the self-cleavage came out at 1.06.
The value for A15C C59U was 0.85.
A15C G33C: the self-cleavage was 0.16.
Turning to A15G A64G, the self-cleavage is 0.65.
With A15G A64C, the self-cleavage turned out to be 0.25.
For the variant A15G A64U, the self-cleavage amounted to 0.33.
As to A15U A56G, the self-cleavage turned out to be 0.46.
For A15U A56U, the self-cleavage was found to be 0.47.
Consider A15G A20U, for which the self-cleavage is 0.24.
The value for A15G A20G was 0.47.
For A15G A20C the value was 0.18; for A15G G73A, 1.19.
As to A15G G73C, the self-cleavage was 1.16.
Turning to A15C U72A, the self-cleavage was 0.8.
For A15C U72C the value was 1.1; for A15U C29U, 0.5; for C14U U51C, 1.25.
Consider C14U U51A, for which the self-cleavage stood at 1.24.
The value for A15G A65U was 0.23; that for A15G A65G was 0.39; that for C14U U78G was 1.27.
The value for C14U U78C was 1.22; that for A15C C68U was 0.59.
The value for A15G G61A was 0.34.
As for A15C A56G, the self-cleavage is 0.68.
The value for A15C A56U was 0.3.
In the case of A15G C68A, the self-cleavage is 0.2.
The value for A15G C68U was 0.67; that for A15G A18U was 0.26; that for A15G A18C was 0.37.
For A15G A18G, the self-cleavage is 0.5.
The value for A15G A57G was 0.63; that for A15G A57U was 0.56; that for A15G A75G was 0.92.
With A15G A75U, the self-cleavage came out at 1.02.
The value for A15C A18G was 0.41; that for A15C A18U was 0.32; that for A15C A18C was 0.35.
A15G U49G: the self-cleavage amounted to 0.52.
With A15G U49C, the self-cleavage came to 0.28.
For A15G U49A the value was 0.61; for A15C C17U, 0.35; for A15C G53C, 0.95.
Take A15G C59U: the self-cleavage was determined as 0.69.
Take A15G C59A: the self-cleavage amounted to 0.27.
The value for A15G C37A was 0.11.
The value for A15G C37U was 0.81.
For A15G C37G, the self-cleavage was 0.69.
